Columns and labels:
Test in all cases: purified protein, by the assay type
Format in all cases: biochemical
[1] = substrate: CC(=O)NCCSC(=O)[C@H](CC(C)C)NC(=O)[C@H](CCCN)NC(=O)[C@@H](NC(=O)[C@H](Cc1ccc(O)cc1)NC(=O)[C@H](CCC(N)=O)NC(=O)[C@H](CC(N)=O)NC(=O)[C@@H](Cc1ccccc1)NC(=O)[C@H](C)NC(=O)[C@@H]1CCCN1C(=O)[C@H](N)Cc1ccccc1)C(C)C; settings: other: Table 1; macrocyclization of peptide-SNAC substrate; 25 mM MOPS, pH 7.0
Method: (§1) Macrocyclization reactions were carried out in 25 mM MOPS, pH 7.0 in a total volume of 400 μL. Reactions were initiated by addition of TycC TE and quenched at various time points by the addition of 25 μL 1.7% TFA/water, flash frozen in liquid nitrogen and stored at −80° C. (for Ex. 13, reactions were quenched by the addition of sodium phosphate, pH 5.3, to 100 mM). The reactions were then thawed, 85 μL acetonitrile added, and analyzed by analytical HPLC with monitoring at 220 nm (20% to 80% acetonitrile in 0.1% TFA/water, or in 25 mM potassium phosphate, pH 5.3 for Ex. 13, over 35 minutes, Vydac protein and peptide C18 column). Initial rates were calculated using 1 minute time points. Peptide-SNAC and reaction product concentrations were determined for all Tyr-containing peptides based on the estimated extinction coefficient ε (280 nm)=1,280 M^−1 cm^−1, which agrees with the experimentally determined ε (280 nm) of Ex. 1. For peptide-SNACs not containing Tyr, ε (220 nm) was determined experimentally, and concentrations of corresponding cyclic products determined by assuming equal ε (220 nm) values for the peptide-SNAC and cyclic product.

[2] = substrate: CC(=O)NCCSC(=O)[C@H](CC(C)C)NC(=O)[C@H](CCCN)NC(=O)[C@@H](NC(=O)[C@H](Cc1ccc(O)cc1)NC(=O)[C@H](CCC(N)=O)NC(=O)[C@H](C)NC(=O)[C@@H](Cc1ccccc1)NC(=O)[C@H](Cc1ccccc1)NC(=O)[C@@H]1CCCN1C(=O)[C@H](N)Cc1ccccc1)C(C)C; settings: other: Table 1; macrocyclization of peptide-SNAC substrate; 25 mM MOPS, pH 7.0
Method: as §1

[3] = substrate: CC(=O)NCCSC(=O)[C@H](CC(C)C)NC(=O)[C@H](CCCN)NC(=O)[C@@H](NC(=O)[C@H](CC(C)C)NC(=O)[C@@H](NC(=O)[C@@H]1CCCN1C(=O)[C@@H](Cc1ccccc1)NC(=O)[C@H](CC(C)C)NC(=O)[C@H](CCCN)NC(=O)[C@@H](NC(=O)[C@H](CC(C)C)NC(=O)[C@@H](NC(=O)[C@@H]1CCCN1C(=O)[C@H](N)Cc1ccccc1)C(C)C)C(C)C)C(C)C)C(C)C; settings: other: Table 2; cyclization of peptide-SNAC substrates of 6-14 amino acids
Method: as §1

[4] = substrate: CC(=O)NCCSC(=O)[C@H](CC(C)C)NC(=O)[C@H](CCCN)NC(=O)[C@@H]1CCCN1C(=O)[C@@H](Cc1ccccc1)NC(=O)[C@H](CC(C)C)NC(=O)[C@H](CCCN)NC(=O)[C@@H]1CCCN1C(=O)[C@H](N)Cc1ccccc1; settings: other: Table 2; cyclization of peptide-SNAC substrates of 6-14 amino acids
Method: as §1

[5] = substrate: CC(=O)NCCSC(=O)[C@H](CC(C)C)NC(=O)[C@H](CCCN)NC(=O)[C@@H](NC(=O)[C@H](Cc1ccc(O)cc1)NC(=O)[C@H](CCC(N)=O)NC(=O)[C@H](C)NC(=O)[C@H](CC(N)=O)NC(=O)[C@@H](Cc1ccccc1)NC(=O)[C@H](Cc1ccccc1)NC(=O)[C@@H]1CCCN1C(=O)[C@H](N)Cc1ccccc1)C(C)C; settings: other: Table 1; macrocyclization of peptide-SNAC substrate; 25 mM MOPS, pH 7.0
Method: as §1

B1: TycC TE (excised TE domain protein from the tyrocidine NRPS) (Brevibacillus parabrevis) (protein)
chain: FESRYGTAILLNQETARNVFCFTPIGAQSVYYQKLAAEIQGVSLYSFDFIQDDNRMEQYIAAITAIDPSGPYTLMGYSSGGNLAFEVAKELEERGYGVTDIILFDSYWKDKAIERTVAETENDIAQLFAEIGENTEMFNMTQEDFQLYAANEFVKQSFVRKTVSYVMFHNNLVNTGMTTAAIHLIQSELEADEEAPVAAKWNESAWANATQRLLTYSGHGIHSRMLAGDYASQNASILQNILQELFILK
notes: excised TE domain protein from the tyrocidine NRPS (TycC TE); made in house
**Q.** Which results are given for B1?
**A.** Km [1]: 6 µM; Km [2]: 6 µM; Km [3]: 5 µM; kcat [3]: 0.1 s⁻¹; Km [4]: 3 µM; kcat [4]: 0.283 s⁻¹; Km [5]: 20 µM

Reference: patent US7279304B2, “Methods for preparation of macrocyclic molecules and macrocyclic molecules prepared thereby” (President and Fellows of Harvard College, priority 2000, dated 2007)
